In patent US20210395773A1, “IN VIVO CONTROLLED COMBINATION THERAPY FOR TREATMENT OF CANCER” (PRECIGEN, INC., priority 2018, published 2021):
Marks after values point to notes of the source that are not given here.

Key:
GL-261 medullary glioma = conditions: vehicle mOS 16 days
Excerpt: Ad-RTS-hIL-12 (Ad) is a recombinant, adenoviral-delivered, gene therapy for expression of interleukin-12 (IL-12) under the control of an orally administered activator ligand, veledimex (V), acting in concert with a ligand-inducible gene switch (also referred to as “RTS®”).

[1] = Veledimex levels in blood and CSF after oral gavage (blood-brain barrier crossing); assay type: in vivo, C57BL/6 mice; conditions: PO 450 or 1,200 mg/m2/day; normal C57BL/6 and orthotopic GL-261 glioma mice; 24 hours post-veledimex
Method: To generate orthotopic GL-261 glioma mice, a group of C57BL/6 mice received 1×10^5 GL-261 glioma cells via intracranial injection ˜2 mm distal to the intersection of the coronal and sagittal suture. On day 5, the animals were randomly assigned to one of the treatment groups. GL-261, a murine glioma tumor cell line, was purchased from American Type Culture Collection (Manassas, Va.).
Veledimex was administered to normal C57BL/6 mice or orthotopic GL-261 glioma mice via oral gavage (PO) at 450 mg/m2/day or 1,200 mg/m^2/day. Terminal blood and CSF were collected for normal C57BL/6 mice or orthotopic GL-261 glioma mice after 2 days of treatment, and for orthotopic GL-261 glioma mice after 13 days of treatment.

[2] = Phase 1 Main Study: veledimex in plasma and tumor; assay type: in vivo, human
Method: FIGS. 21A-21D show a series of graphs depicting veledimex, IL-12 and IFN-γ concentrations upon treatment with veledimex. […] Each symbol represents plasma from a single patient. […] Veledimex was administered to each patient approximately 3 hours before the start of the craniotomy. Serum and tumor at the time of resection were then assayed for veledimex levels.
This study is investigating two intratumoral Ad-RTS-hIL-12 doses (2×10^11 vp or 1×10^12 vp) and escalating veledimex doses (10 mg to 40 mg) to determine the safe and tolerable dose based on the safety profiles observed in the presence of variable corticosteroid exposure. Group 1 received one veledimex dose before a standard-of-care resection procedure, Ad was administered by freehand intratumoral injection, then continued with oral V QD for 14 days. Subjects not scheduled for tumor resection (Group 2) received Ad-RTS-hIL-12 (2×10^11 vp or 1×10^12 vp) by stereotactic injection and then continued on oral veledimex for 14 days.

[3] = system: cytotoxic T cells and Tregs in peripheral blood; test: Phase 1 Ad+V with nivolumab in rGBM: peripheral blood flow cytometry; assay type: in vivo, human; conditions: after nivolumab alone
Method: Methods: An open label, dose escalation Phase 1 study evaluating safety and tolerability of local, inducible IL-12 expression in combination with nivolumab in adult subjects with recurrent glioblastoma (rGBM) was commenced. Ad was administered by intratumoral injection (using a dose of 2×10^11 vp (2e11 vp)) along with daily veledimex (V) (at doses of 10-20 mg) QDx15 PO with nivolumab intravenous infusions (at doses of 1-3 mg/kg) at Day (−)7 (i.e., 7 days prior to administration of Ad+V), at Day 15 (after administration of Ad+V), then Q2W (i.e., once every 2-weeks).

IL-12 = test: Phase 1 Ad+V with nivolumab in rGBM: serum IL-12; assay type: in vivo, human
Method: (§1) Ad was administered by intratumoral injection (using a dose of 2×10^11 vp (2e11 vp)) along with daily veledimex (V) (at doses of 10-20 mg) QDx15 PO with nivolumab intravenous infusions (at doses of 1-3 mg/kg) at Day (−)7 (i.e., 7 days prior to administration of Ad+V), at Day 15 (after administration of Ad+V), then Q2W (i.e., once every 2-weeks).

[4] = Phase 1 Ad+V with nivolumab in rGBM: safety (adverse events); assay type: in vivo, human; conditions: by relatedness
Method: as §1

[5] = Cohort 1: Ad + V (10 mg) Nivolumab (1 mg/kg) N = 3
[6] = Cohort 2: Ad + V (10 mg) Nivolumab (3 mg/kg) N = 3
[7] = Cohort 3: Ad + V (20 mg) Nivolumab (3 mg/kg) N = 2

## Cn1nnc2c(C(N)=O)ncn2c1=O [temozolomide]
GL-261 medullary glioma
  mOS: 25 days

## CCC[C@@H](N(NC(=O)c1cccc(OC)c1CC)C(=O)c1cc(C)cc(C)c1)C(C)(C)C [veledimex, (R)—N′-(3,5-dimethylbenzoyl)-N′-(2,2-dimethylhexan-3-yl)-2-ethyl-3-methoxybenzohydrazide]
[1]
  crossing of the blood-brain barrier by orally administered veledimex: crosses the blood-brain barrier
[2]; V 10-40 mg
  plasma and tumor V peak PK levels versus dose: dose dependent
[2]; human, tumor (relative to plasma), oral, Main Study, tumor vs plasma at resection, about 3 hours after V, read-out: V tumor penetration
  Kp: ~0.4
[2]; rGBM patients
  crossing of the blood-brain-barrier: crosses the blood-brain-barrier

## Nivolumab: antibody that binds PD-1; heavy and light chains SEQ ID NO: 10 and 11
[3]; baseline 1.5%
  Tregs (FoxP3) at Day 0: 0.8%
[3]; median baseline 23%
  peripheral cytotoxic T cells CD3+CD8+ at Day 0: 26%
IL-12; after nivolumab alone (Day -7 dose), median baseline 0.9 pg/ml
  peripheral IL-12 at Day 0 (median): 1.0 pg/mL
IL-12; nivolumab Day -7
  impact of pre-dosing on cytokine levels prior to Ad+V: did not have an impact on cytokine levels
[4]; [5]
  Related ≥ Grade 3 AEs: ALT increased: 0
  Related ≥ Grade 3 AEs: Brain oedema (cerebral edema): 1 (33%)
  Related ≥ Grade 3 AEs: Lipase increased: 0
  Related ≥ Grade 3 AEs: Lymphocyte count Decreased: 0
[4]; [6]
  Related ≥ Grade 3 AEs: ALT increased: 0
  Related ≥ Grade 3 AEs: Brain oedema (cerebral edema): 0
  Related ≥ Grade 3 AEs: Lipase increased: 1 (33%)
[4]; Cohort 2: Ad + V (10 mg) Nivolumab (3 mg/kg) N = 3, one AE related to both
  Related ≥ Grade 3 AEs: Lymphocyte count Decreased: 1 (33%)*
[4]; [7]
  Related ≥ Grade 3 AEs: ALT increased: 0
  Related ≥ Grade 3 AEs: Brain oedema (cerebral edema): 0
  Related ≥ Grade 3 AEs: Lipase increased: 0
  Related ≥ Grade 3 AEs: Lymphocyte count Decreased: 0
[4]; Cohorts 1-3
  related SAEs: One SAE of brain oedema (cerebral edema) was considered related to nivolumab alone
